The results in this text go back to US11723946B2, “Methods for regulating transcription of multiple genes and expression of multiple targets” (CHINA MEDICAL UNIVERSITY, priority 2014, dated 2023).

The nature of experiment [1]: Serological and biochemical analysis in NOD mice. As to conditions: 20 weeks; for Creatinine in serum: control 0.70 ± 0.05; for BUN: control 40.50 ± 4.54. It is filed as in vivo. On the procedure: 23 mice were divided into four groups with different administrations for 20 weeks, wherein 6 mice of the group 1 were control mice that were daily orally administrated with 20 μl of PBS. 6 mice of the group 2 were daily orally administrated with 20 μl of 0.01 umol/kg solution that contained the present polypeptide comprising the amino acid sequence of SEQ ID No. 1. 6 mice of the group 3 were daily orally administered with 20 μl of 0.1 umol/kg solution that contained the present polypeptide comprising the amino acid sequence of SEQ ID No. 1. 5 mice of the group 4 were daily orally administrated with 20 μl of 1 umol/kg solution that contained the present polypeptide comprising the amino acid sequence of SEQ ID No. 1.
During the administration period, the survival rate, incidence of diabetes and diabetes-induced retinopathy in the each group were measured and shown in table 5. After the administration, the blood samples were collected for serological and biochemical analysis.

Experiment [2] relates to Fat pad (fatty acid metabolism genes). As to conditions: Up-regulated, 2.5 mmol/kg daily, 7 days.
Method: The wild-type FVB mice were divided into the control group and the experimental group, wherein the mice in the experimental group were daily administered with 20 μl peptide-containing solution that contains 2.5 mmol/kg of the present peptide for 7 days. Moreover, the mice in the control group were daily administrated with 20 μl PBS solution for 7 days.
After the daily administration, the tissues of column, muscle, fat pad, liver and kidney were collected for analyzing the expression of multiple targets by system biology analysis. Herein, the altered expressions of the targets in the genome were determined by using DNA microarray which is a well-established tool for systematic biology analysis. Furthermore, the results of the DNA microarray were further categorized and analyzed by bioinformatics analysis to determine the effect and affected signaling pathways of the present polypeptide.
(1) RNA preparation: The total RNA was extracted from the tissue by using RNeasy Mini Kit (Qiagen, Valencia, Calif., USA). The amount of the extracted total RNA was measured by Beckman DU800 spectrophotometer (Beckman Coulter, Fullerton, Calif., USA). In the next step, the quality of the RNA sample with A260/A280 ratio more than 1.8 was further evaluated by Agilent 2100 bioanalyzer (Agilent Technologies, Santa Clara, Calif., USA). When with the RNA integrity number of the sample is more than 8.0, it would be analyzed by the following microarray analysis.
(2) DNA microarray analysis: The procedure of DNA microarray analysis was conducted according to the reference (Cheng, 2007). Briefly, 5 μg of total RNA was amplified by in vitro transcription using MessageAmp™ aRNA kit (Ambion). In the following, the fluorescence dye, Cy5, was chemically labeled on the amplified RNA (aRNA). After the labeling, the fluorescence labeled aRNA was hybridized with Whole Genome OneArray™ in hybridization buffer (Phalanx Biotech Group, Taiwan) on cover slide. Following the hybridization reaction at 50° C. over-night, the non-specific binding on the chip was washed by three washing steps. The washed chip was dried by centrifugation and was scanned by Axon 4000 scanner (Molecular Devices, Sunnyvale, Calif., USA) to measure the fluorescence signals. The fluorescence intensity of Cy5 on each spots was further analyzed by genepix 4.1 (Molecular Devices). First, the signals of each spot were adjusted by deducting the intensity of background. In the next step, the spots including the probes of internal controls or the spots with the signal-to-noise ratios less than 0 would be removed. The qualified spots were normalized by limma package which is belonged to R console (Smyth, 2005).
Setting [3] is: Group 2: 0.01 umol/kg daily oral.
Setting [4] is: Group 3: 0.1 umol/kg daily oral.

B1: present polypeptide: polypeptide comprising the amino acid sequence of SEQ ID No. 1; made by peptide synthesis, recombinant expression or extraction from Momordica charantia (peptide, listed as Artificial synthsis)
chain: SRCQGKSSWPQLVGSTGAAAKAWIERENPRVRAVIIKVGSGATKDFRCDRVRVWVTERGIVARPPTIG
In experiment [1] (setting [3]), B1 gave a Creatinine in serum of 0.64 ± 0.12 mg/dL and a BUN of 37.38 ± 2.77 mg/dL. In experiment [1] (setting [4]), the Creatinine in serum came to 0.69 ± 0.06 mg/dL and the BUN worked out at 38.50 ± 4.69 mg/dL. In experiment [1] (Group 4: 1 umol/kg daily oral), this molecule displayed a Creatinine in serum of 0.69 ± 0.06 mg/dL and a BUN of 35.88 ± 6.33 mg/dL. In addition, in experiment [2], the “Fold, Acox1” value is reported as “Up-regulated 2.0 folds”; the “Fold, Acsl4” value is “Up-regulated 5.1 folds”; the “Fold, Cpt1a” value is “Up-regulated 3.1 folds”; the “Fold, Cpt2” value is given as “Up-regulated 1.5 folds”. In addition, in experiment [2], the “Fold, Hsd17b4” value is listed as “Up-regulated 1.7 folds” and the “Fold, Sirt1” value is reported as “Up-regulated 3.0 folds”.
